Test results: patent publication US20090208440

B1: variant x (protein)
chain: IVGGYNCEENSVPYQVSLNSGYHFCGGSLINEQWVVSAGHCYAAFNGKSRIQVRLGEHNIGVLEGNEQFINAAKIIRHPQYDWKTLNNDIMLIKLSSRAVINARVSTISLPTAPPATGTKCLISGWGNRKDFWTASSGADFPDELQCLDAPVLSQTKCEASYPGKITSNMFCVGFLEGGKDSCQGDSGGPVVRNGQLQGVVSWGDGCAQKNKPGVYTKVYNYVKWIKNTIAANS
B2: variant a (protein)
chain: IVGGYNCEENSVPYQVSLNSGYHFCGGSLINEQWVVSAGHCYRPWDPSKSRIQVRLGEHNIEVLEGNEQFINAAKIIRHPQYDRKTLNNDIMLIKLSSRAVINARVSTISLPTAPPATGTKCLISGWGNVHPTSTASSGADYPDELQCLDAPVLSQAKCEASYPGKITSNMFCVGFLEGGKDSCQGDSGGPVVCNGQLQGVVSWGDGCAQKNKPGVYTKVYNYVKWIKNTIAANS
B3: variant f (protein)
chain: IVGGYNCEENSVPYQVSLNSGYHFCGGSLINEQWVVSAGHCYAAFNGDKSRIQVRLGEHNIEVLEGNEQFINAAKIIRHPQYDRKTLNNDIMLIKLSSRAVINARVSTISLPTAPPATGTKCLISGWGNRKDFWTASSGADYPDELQCLDAPVLSQAKCEASYPGKITSNMFCVGFLEGGKDSCQGDSGGPVVCNGQLQGVVSWGDGCAQKNKPGVYTKVYNYVKWIKNTIAANS
B4: Variant 3 (protein)
chain: IVGGYNCEENSVPYQVSLNSGYHFCGGSLINEQWVVSAGHCYAATNGDKSRIQVRLGEHNIEVLEGNEQFINAAKIIRHPQYDRKTLNNDIMLIKLSSRAVINARVSTISLPTAPPATGTKCLISGWGNRKDFWTASSGADYPDELQCLDAPVLSQAKCEASYPGKITSNMFCVGFLEGGKDSCQGDSGGPVVCNGQLQGVVSWGDGCAQKNKPGVYTKVYNYVKWIKNTIAANS
B5: Variant 2 (protein)
chain: IVGGYNCEENSVPYQVSLNSGYHFCGGSLINEQWVVSAGHCYNGRDLEKSRIQVRLGEHNIEVLEGNEQFINAAKIIRHPQYDRKTLNNDIMLIKLSSRAVINARVSTISLPTAPPATGTKCLISGWGNVRGTWTASSGADYPDELQCLDAPVLSQAKCEASYPGKITSNMFCVGFLEGGKDSCQGDSGGPVVCNGQLQGVVSWGDGCAQKNKPGVYTKVYNYVKWIKNTIAANS
B6: variant e (protein)
chain: IVGGYNCEENSVPYQVSLNSGYHFCGGSLINEQWVVSAGHCYVNIMAAKSRIQVRLGEHNIEVLEGNEQFINAAKIIRHPQYDRKTLNNDIMLIKLSSRAVINARVSTISLPTAPPATGTKCLISGWGNTTARKTASSGADYPDELQCLDAPVLSQAKCEASYPGKITSNMFCVGFLEGGKDSCQGDSGGPVVCNGQLQGVVSWGDGCAQKNKPGVYTKVYNYVKWIKNTIAANS
B7: variant c (protein)
chain: IVGGYNCEENSVPYQVSLNSGYHFCGGSLINEQWVVSAGHCYEIANREKSRIQVRLGEHNIEVLEGNEQFINAAKIIRHPQYDRKTLNNDIMLIKLSSRAVINARVSTISLPTAPPATGTKCLISGWGNRGARTTASSGADYPDELQCLDAPVLSQAKCEASYPGKITSNMFCVGFLEGGKDSCQGDSGGPVVCNGQLQGVVSWGDGCAQKNKPGVYTKVYNYVKWIKNTIAANS
B8: variant b (protein)
chain: IVGGYNCEENSVPYQVSLNSGYHFCGGSLINEQWVVSAGHCYGFVMFNKSRIQVRLGEHNIEVLEGNEQFINAAKIIRHPQYDRKTLNNDIMLIKLSSRAVINARVSTISLPTAPPATGTKCLISGWGNRSPLTTASSGADYPDELQCLDAPVLSQAKCEASYPGKITSNMFCVGFLEGGKDSCQGDSGGPVVCNGQLQGVVSWGDGCAQKNKPGVYTKVYNYVKWIKNTIAANS
B9: Variant 1 (protein)
chain: IVGGYNCEENSVPYQVSLNSGYHFCGGSLINEQWVVSAGHCYDAVGRDKSRIQVRLGEHNIEVLEGNEQFINAAKIIRHPQYDRKTLNNDIMLIKLSSRAVINARVSTISLPTAPPATGTKCLISGWGNTITNSTASSGADYPDELQCLDAPVLSQAKCEASYPGKITSNMFCVGFLEGGKDSCQGDSGGPVVCNGQLQGVVSWGDGCAQKNKPGVYTKVYNYVKWIKNTIAANS
B10: variant d (protein)
chain: IVGGYNCEENSVPYQVSLNSGYHFCGGSLINEQWVVSAGHCYKAVVGTKSRIQVRLGEHNIEVLEGNEQFINAAKIIRHPQYDRKTLNNDIMLIKLSSRAVINARVSTISLPTAPPATGTKCLISGWGNRTPISTASSGADYPDELQCLDAPVLSQAKCEASYPGKITSNMFCVGFLEGGKDSCQGDSGGPVVCNGQLQGVVSWGDGCAQKNKPGVYTKVYNYVKWIKNTIAANS

What was measured:
[1] = target: proteins from human blood serum
[2] = target: peptide with the desired target sequence of TNF-alpha
substrate B = target: T1, substrate B
T1 chain: KKWLGRVPGGPV

substrate A = target: T2, substrate A
T2 chain: LLWLGRVVGGPV

Sequence of human TNF-alpha (chain, as listed by the source): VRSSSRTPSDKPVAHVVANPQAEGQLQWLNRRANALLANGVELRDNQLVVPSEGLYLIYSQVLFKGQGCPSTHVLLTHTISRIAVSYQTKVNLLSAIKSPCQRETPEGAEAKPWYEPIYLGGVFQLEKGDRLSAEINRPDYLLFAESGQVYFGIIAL

| Protein | k with comp./k without comp. [2] | rate constants of proteolytic digestion (proportional to kcat/KM), relative to human trypsin I (substrate B) | further results |
| --- | --- | --- | --- |
| B1 |  |  | remaining intact protein as a function of time (proteolytic digestion) (human TNF-alpha): the variants as well as human trypsin I digest human TNF-alpha; remaining intact protein as a function of time (proteolytic digestion) [1]: only trypsin shows activity on serum protein |
| B2 | 0.13 |  |  |
| B3 | 0.487 |  |  |
| B4 |  | serves as a negative control with similar activities as the human trypsin I | rate constants of proteolytic digestion (proportional to kcat/KM), relative to human trypsin I (substrate A): serves as a negative control with similar activities as the human trypsin I |
| B5 |  | the specific activity of variants 1 and 2 is shifted (SEQ ID NOs: 2 and 3, respectively) towards substrate B |  |
| B6 | 0.374 |  |  |
| B7 | 0.235 |  |  |
| B8 | 0.187 |  |  |
| B9 |  | the specific activity of variants 1 and 2 is shifted (SEQ ID NOs: 2 and 3, respectively) towards substrate B |  |
| B10 | 0.31 |  |  |
